Assay [1] deals with T1, Recombinant human PD-1 (Beijing Sino Biological Inc., Catalog No. 10377-H08H) (human, UniProt Q15116 25-167). The experiment in a line: ELISA; panel A. Background: In an ELISA, binding on a coated surface is turned into a signal by an enzyme label.
Assay [2] has as its target T1, Recombinant human PD-1 (Beijing Sino …). The experiment in a line: ELISA; panel B.

T1 sequence (Q15116 25-167): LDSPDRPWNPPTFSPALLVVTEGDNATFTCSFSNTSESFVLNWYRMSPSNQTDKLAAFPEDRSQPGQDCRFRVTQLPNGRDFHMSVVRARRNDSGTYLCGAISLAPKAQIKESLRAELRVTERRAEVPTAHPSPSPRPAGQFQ

B1: PD-1 (BJHM) monoclonal antibody (antibody, V domains shown)
VH: EVNLVESGGGLVQPGGSLRLSCAASGFTFSSYGMSWVRQAPGKGLEWVASISGGGRYTYYPDSMKGRFTISRDNSKNNLYLQMNSLRAEDTAVYYCVYEYFYTMDYWGQGTLVTVSS
VL: DIVLTQSPATLSLSPGERATLSCRASQSISNNLHWYQQKPGQAPRLLIRFASQSISGIPARFSGSGSGTDFTLTISSLEPEDFAVYFCQQSDNWPLTFGGGTKVEIK
One may read the EC50 as the concentration giving half of the maximal effect. Turning to B1, the EC50 in assay [1] was determined as 61 pM; in assay [2], 40 pM.

Source of the values: patent US20210040193A1 (published 2021).
